# Measurements as given in patent US12037382 (STICHTING VU, dated 2024).
# How the values were obtained:
# [1] = target: T1, US28 wild type, G protein-coupled receptor of human cytomegalovirus strain VHL/E (human cytomegalovirus strain VHL/E); assay: displacement of 125I-CX3CL1 from US28-expressing HEK293T membranes by unlabeled CX3CL1
# T1 construct: whole, on cells; In some assays membranes of transfected cells were used; also called US28-WT; US28 VHL/E
# [2] = target: T1, US28 wild type, G protein-coupled …; assay: competition of unlabeled CX3CL1 against 125I-CX3CL1 on US28
binder,measurement,setting,value
"human chemokine CX3CL1 (ligand, UniProt P78423 25-100, looked up, 125I label where used as radioligand, also called CX3CL1/Fractalkine) QHHGVTKCNITCSKMTSKIPVALLIHYQQNQASCGKRAIILETRQHRLFCADPKEQWVKDAMQHLDRQAAALTRNG",IC50 (read off the curve),[1],~0.3 nM
same,IC50 (read off the curve),[2],~0.1 nM
